The supplement of paper PMC10567573

B1: TOR1AIP2 (parent)
chain: HHVADAYTSSQKVSPIQIDGAGRT

Variants of: B1
Test: protein stability index of a GFP-peptide fusion (GPS, HEK-293T) (PSI 1-6); higher = more stable
Conditions: c terminus: a fixed tail appended
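Note: lentivirally expressed fusions sorted by FACS into six bins by GFP to DsRed ratio, PSI derived from sequencing read proportions per bin multiplied by bin number.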

Variant | protein stability index
HHVADAYTSEQKVSPIQIDGAGRT [S10E] | 3.98
HHVADAYTSFQKVSPIQIDGAGRT [S10F] | 2.95
HHVADAYTSGQKVSPIQIDGAGRT [S10G] | 3.81
HHVADAYTSHQKVSPIQIDGAGRT [S10H] | 3.17
HHVADAYTSIQKVSPIQIDGAGRT [S10I] | 2.72
HHVADAYTSKQKVSPIQIDGAGRT [S10K] | 3.46
HHVADAYTSLQKVSPIQIDGAGRT [S10L] | 3.07
HHVADAYTSMQKVSPIQIDGAGRT [S10M] | 2.93
HHVADAYTSNQKVSPIQIDGAGRT [S10N] | 3.21
HHVADAYTSPQKVSPIQIDGAGRT [S10P] | 3.87
HHVADAYTSQQKVSPIQIDGAGRT [S10Q] | 3.24
HHVADAYTSRQKVSPIQIDGAGRT [S10R] | 2.64
HHVADAYTSTQKVSPIQIDGAGRT [S10T] | 3.28
HHVADAYTSVQKVSPIQIDGAGRT [S10V] | 2.9
HHVADAYTSWQKVSPIQIDGAGRT [S10W] | 2.37
HHVADAYTSYQKVSPIQIDGAGRT [S10Y] | 2.94
HHVADAYTSSAKVSPIQIDGAGRT [Q11A] | 3.23
HHVADAYTSSCKVSPIQIDGAGRT [Q11C] | 3.06
HHVADAYTSSDKVSPIQIDGAGRT [Q11D] | 4.26
HHVADAYTSSEKVSPIQIDGAGRT [Q11E] | 3.97
HHVADAYTSSFKVSPIQIDGAGRT [Q11F] | 2.65
HHVADAYTSSGKVSPIQIDGAGRT [Q11G] | 3.66
HHVADAYTSSHKVSPIQIDGAGRT [Q11H] | 3
HHVADAYTSSIKVSPIQIDGAGRT [Q11I] | 3

Variant | protein stability index
HHVADAYTSSKKVSPIQIDGAGRT [Q11K] | 3.56
HHVADAYTSSLKVSPIQIDGAGRT [Q11L] | 3.27
HHVADAYTSSMKVSPIQIDGAGRT [Q11M] | 3.15
HHVADAYTSSNKVSPIQIDGAGRT [Q11N] | 3.29
HHVADAYTSSPKVSPIQIDGAGRT [Q11P] | 3.74
HHVADAYTSSRKVSPIQIDGAGRT [Q11R] | 2.95
HHVADAYTSSSKVSPIQIDGAGRT [Q11S] | 3.44
HHVADAYTSSTKVSPIQIDGAGRT [Q11T] | 3.6
HHVADAYTSSVKVSPIQIDGAGRT [Q11V] | 2.89
HHVADAYTSSWKVSPIQIDGAGRT [Q11W] | 2.21
HHVADAYTSSYKVSPIQIDGAGRT [Q11Y] | 2.96
HHVADAYTSSQAVSPIQIDGAGRT [K12A] | 3.85
HHVADAYTSSQCVSPIQIDGAGRT [K12C] | 3.06
HHVADAYTSSQDVSPIQIDGAGRT [K12D] | 3.88
HHVADAYTSSQEVSPIQIDGAGRT [K12E] | 3.84
HHVADAYTSSQFVSPIQIDGAGRT [K12F] | 2.47
HHVADAYTSSQGVSPIQIDGAGRT [K12G] | 3.48
HHVADAYTSSQHVSPIQIDGAGRT [K12H] | 3.54
HHVADAYTSSQIVSPIQIDGAGRT [K12I] | 3.13
HHVADAYTSSQLVSPIQIDGAGRT [K12L] | 3.24
HHVADAYTSSQMVSPIQIDGAGRT [K12M] | 3.4
HHVADAYTSSQNVSPIQIDGAGRT [K12N] | 3.67
HHVADAYTSSQPVSPIQIDGAGRT [K12P] | 4.16
HHVADAYTSSQQVSPIQIDGAGRT [K12Q] | 3.86

Variant | protein stability index
HHVADAYTSSQRVSPIQIDGAGRT [K12R] | 3.34
HHVADAYTSSQSVSPIQIDGAGRT [K12S] | 3.77
HHVADAYTSSQTVSPIQIDGAGRT [K12T] | 3.59
HHVADAYTSSQVVSPIQIDGAGRT [K12V] | 3.47
HHVADAYTSSQWVSPIQIDGAGRT [K12W] | 2.72
HHVADAYTSSQYVSPIQIDGAGRT [K12Y] | 3.02
HHVADAYTSSQKASPIQIDGAGRT [V13A] | 3.27
HHVADAYTSSQKCSPIQIDGAGRT [V13C] | 2.92
HHVADAYTSSQKDSPIQIDGAGRT [V13D] | 4
HHVADAYTSSQKESPIQIDGAGRT [V13E] | 3.96
HHVADAYTSSQKFSPIQIDGAGRT [V13F] | 3.21
HHVADAYTSSQKGSPIQIDGAGRT [V13G] | 3.7
HHVADAYTSSQKHSPIQIDGAGRT [V13H] | 3.76
HHVADAYTSSQKISPIQIDGAGRT [V13I] | 2.83
HHVADAYTSSQKKSPIQIDGAGRT [V13K] | 3.66
HHVADAYTSSQKLSPIQIDGAGRT [V13L] | 3.56
HHVADAYTSSQKMSPIQIDGAGRT [V13M] | 3.83
HHVADAYTSSQKNSPIQIDGAGRT [V13N] | 4.32
HHVADAYTSSQKPSPIQIDGAGRT [V13P] | 3.82
HHVADAYTSSQKQSPIQIDGAGRT [V13Q] | 3.85
HHVADAYTSSQKRSPIQIDGAGRT [V13R] | 3.59
HHVADAYTSSQKSSPIQIDGAGRT [V13S] | 3.79
HHVADAYTSSQKTSPIQIDGAGRT [V13T] | 3.8
HHVADAYTSSQKWSPIQIDGAGRT [V13W] | 3.16

Variant | protein stability index
HHVADAYTSSQKYSPIQIDGAGRT [V13Y] | 3.43
HHVADAYTSSQKVAPIQIDGAGRT [S14A] | 3.9
HHVADAYTSSQKVCPIQIDGAGRT [S14C] | 3.22
HHVADAYTSSQKVDPIQIDGAGRT [S14D] | 4.07
HHVADAYTSSQKVEPIQIDGAGRT [S14E] | 4.13
HHVADAYTSSQKVFPIQIDGAGRT [S14F] | 3.34
HHVADAYTSSQKVGPIQIDGAGRT [S14G] | 3.27
HHVADAYTSSQKVHPIQIDGAGRT [S14H] | 3.44
HHVADAYTSSQKVIPIQIDGAGRT [S14I] | 2.94
HHVADAYTSSQKVKPIQIDGAGRT [S14K] | 3.45
HHVADAYTSSQKVLPIQIDGAGRT [S14L] | 3.42
HHVADAYTSSQKVMPIQIDGAGRT [S14M] | 3.25
HHVADAYTSSQKVNPIQIDGAGRT [S14N] | 4.01
HHVADAYTSSQKVPPIQIDGAGRT [S14P] | 3.25
HHVADAYTSSQKVQPIQIDGAGRT [S14Q] | 3.35
HHVADAYTSSQKVRPIQIDGAGRT [S14R] | 3.26
HHVADAYTSSQKVTPIQIDGAGRT [S14T] | 3.22
HHVADAYTSSQKVVPIQIDGAGRT [S14V] | 3.46
HHVADAYTSSQKVWPIQIDGAGRT [S14W] | 2.77
HHVADAYTSSQKVYPIQIDGAGRT [S14Y] | 2.71
HHVADAYTSSQKVSAIQIDGAGRT [P15A] | 3.66
HHVADAYTSSQKVSCIQIDGAGRT [P15C] | 3.66
